Results taken from the nanobody polyreactivity screen of Harvey et al. (2022).

experiment: yeast display, Sf9 membrane polyspecificity reagent, FACS + sequencing; frameworks hold sequencing errors
Procedure, shortened: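 In a synthetic yeast display library (Saccharomyces cerevisiae BJ5465), nanobody expression was induced with galactose for 36–48 hours. FACS gates were set low and high (top ~1%) using anti-HA fluorescence for expression and streptavidin fluorescence for binding of the Sf9 membrane reagent. Each polyreactivity label is drawn from the gate of origin.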

Sequence	polyreactivity (PSR sort gate)
QVQLVESGGGLVQAGGSLRLSCAASGSYLRYYAMGWYRQAPGKERELVAAISRSGTNTYYADSVKGRFTISRDNAKNTVYLQMNSLKPEDTAVYYCAARSWKRRVGRDYWGQGTQVTVSS	high polyreactivity
QVQLVESGGGLVQAGGSLRLSCAASGTFAGNAMGWYRQAPGKERELVAAINSGGSTNYADSVKGRFTISRDNAKNTVYLQMKSLKPEDTAVYYCAADSVWSPVDYDYWGQGTQVTVSS	low polyreactivity
QVQLVESGGGLVQAGGSLRLSCAASGTFFGYAMGWYRQAPGKERELVAAITSGGSTYYADSVKGRFTISRDNAKNTVYLQMNSLKPEDTAVYYCARVYSRWSYRYDYWGQGTQVTVSS	low polyreactivity
QVQLVESGGGLVQAGGSLRLSCAASGTFQSNAMGRYRPAPGKERELVAAITSGGSTNYADSVKGRFTISRDNAKNTVYLQMNSLKPEDTAVYYCAAVRRYRASRGSLYYYWGLGTQVTVSS	high polyreactivity
QVQLVESGGGLVQAGGSLRLSCAASGTFSQYAMGWYRQAPGKERELVAAISQGGGSTYYADSVKGRFTISRDNAKNTVYLQMNSLKPEDTAVYYCARSRSYWGIVYGRYDYWGQGTQVTVSS	high polyreactivity
QVQLVESGGGLVQAGGSLRLSCAASGTFVTYMGWYRQAPGKERELVAAIRNGGSTNYADSVKGRFTISRDKAKNTVYLQMNSLKPEDTAVYYCAADRAGSIMNYWGQGTQVTVSS	low polyreactivity
QVQLVESGGGLVQAGGSLRLSCAASGTFYGNTMGWYRRPPGKERELVAVISIDGSTNYADSVKGRFTISRDNAKNTVYLQMNSLKPEDTAVYYCAADYWRQFRDYDYWGQGTQVTVSS	low polyreactivity
QVQLVESGGGLVQAGGSLRLSCAASGTFYWNVMGWYRQAPGKEREFVASITLSGTSTYYADSVKVRFTISRDNAKNTVYLQMNSLKPEDTAVYYCAVAARWPAPVPHYYYWGQGTQVTVSS	low polyreactivity
QVQLVESGGGLVQAGGSLRLSCAASGTIFGSNAMGWYRQAPGKERELVAAISWRGGRTYYADSVKGRFSISRDYAKNTVYLQMYSLKPVETAVYYCAKRWRRRFVDVWSLYDYWGQGTQVTVSS	low polyreactivity
QVQLVESGGGLVQAGGSLRLSCAASGTIFKSNSMGWYRQAPGKERELVAAISNGGITNYADSVKGRFTISRDNAKNTVYLQMNSLKPEDTAVYYCATSDVREIWVDYWGQGTQVTVSS	low polyreactivity
QVQLVESGGGLVQAGGSLRLSCAASGTIFLANAMGWYRQAPEKERELVAAINSGDNSYYADSVKGRFTISRDNAKITVYLQINSLKPEDTAVYYCAAEYTGYFYAYEYWGQGSQVTVSS	high polyreactivity
QVQLVESGGGLVQAGGSLRLSCAASGTIFRGNAMGWYRQAPGTERELVAAINKSGGSTYYADSVKGRFTISRDNAKNTVYLQMNSLKPEDTAVYYCAAVYKRLQPYGYWGQGTQVTVSS	high polyreactivity
QVQLVESGGGLVQAGGSLRLSCAASGTIFRRSAMGWDRQAPGKERELVATITSTDSTNYADSVKGRFTISRDNAKNTVYLQMNSLKPEDTAVYYCAKRPYHYRRNSEYYYWGQGTQVTVSS	low polyreactivity
QVQLVESGGGLVQAGGSLRLSCAASGTIFSLYAMGWYRQAHGKERELVAAISGSGSSTHYADSVKGRFTISRDNAKNTVYLQMNSLKPEDSAVYYCAATYWTNSYYYWGQGTQVTVSS	low polyreactivity
QVQLVESGGGLVQAGGSLRLSCAASGTIFTINAMGWYRQAAGKERELVAAISWSGAHTYYADSVKGRFTISRDNAKNTVFLQMNSLKPEDTAVYYCATGYNYLERNTGYFHRFDYWGQGTQVTVSS	low polyreactivity
QVQLVESGGGLVQAGGSLRLSCAASGTIFVLYAMGWYRQAPGKERELVAAITTGGGTNYADSVKGRFTISRDNEKNTVYLQMNRLKPEDTAVYYCAADTGWYDDWTHDYWGQGTQVTVSS	low polyreactivity
QVQLVESGGGLVQAGGSLRLSCAASGTIYVTNGMGWYRQAPGKERELVAVISWGGGNTYYADSVKRRFTISRDNAKNTVYLQMNILKPEDTAVYYCAADPISEFYWGVKDRYDYWGQGTQVTVSS	low polyreactivity
QVQLVESGGGLVQAGGSLRLSCAASGTLSRYAMGWYIQAPGKERELVAAISWTGGSTYYADSVKGRFTISRDNAKYTVYLQMNSLKPEDTAVYYCNGAWRLRGDATYGYWGQGTQVTVSS	high polyreactivity
QVQLVESGGGLVQAGGSLRLSCAASGTSGYYAMGWYRQAPGKERELVAGISIGGSTNYADSVKGRFTISRDNAKNTVYLQMNSLKPEDTAVYYCAVDGYVAFSPDRNNYWGQGTQVTLSS	low polyreactivity
QVQLVESGGGLVQAGGSLRLSCAASGTTFDSYAMGWYRQAPGKERELVPAITSSASTNYADSVKGRFTISRDNAKNTVYLQMNSLKPEDNAVYYCYADAYRLSFGGFTSDDEFVYWGLGTQVTVSS	high polyreactivity
QVQLVESGGGLVQAGGSLRLSCAASGTTFDVYAMGWSRQAPGKERELVAAITSGGTTNYADSVKGRFTISRDNAKNPVFFQMNSLKPEDTAVYYCAKDSRNVYWDYGYWGQGTQVSVSS	low polyreactivity
QVQLVESGGGLVQAGGSLRLSCAASGTTFDVYAMGWYRQAPGKERELVAAISTRGTRTYYADSVKGRFTISRDNAKNTVYLQMNSLKPEETAVYYCAAYVYDGETVSRFDYWGQGTQVTVSS	high polyreactivity

Sequence	polyreactivity (PSR sort gate)
QVQLVESGGGLVQAGGSLRLSCAASGTTFFINDLGWYRQAPGKERELVAAISWSGDSTYYPDSVKGRFTISRDNAKNTVYLQMKSLKPEDTAVYYCAADWGFVQPGWSYNYWGQGTQVTVSS	high polyreactivity
QVQLVESGGGLVQAGGSLRLSCAASGTTFFNNAMGWYRQAPGKERELVAAITSGRTYYADSVKGRFTISRDNAKNTVYLLMNSLKPEDTAVDYCAKDADQDADKPFQFTMDYWGQGTEVTVSS	low polyreactivity
QVQLVESGGGLVQAGGSLRLSCAASGTTFILNAMGWYRQAPGKDRELVATISSSDTSTYYADSVKGRFTISRDNAKNTVYLQMNSLKPEDTAVYYCNADYYTTSYLQRVFHYGVEYDYWGQGTQVTVSS	low polyreactivity
QVQLVESGGGLVQAGGSLRLSCAASGTTFNAYAMGWYRQAPGKDRELVAAISTSGGRTYYADSVKGRYTISRDNAKNTVYLQMNSLKPEDTAVNYCAAVLGRSPGLNYWGQGTQVTVSS	high polyreactivity
QVQLVESGGGLVQAGGSLRLSCAASGTTFYHNVMGWYRQAPGKERELVASIDTGDSTNYADSVKGRFTISRDNAKNTVYLQMNSLKPEDTAVYYCNADSYPALNKRGYDYWGQGTQVTVSS	low polyreactivity
QVQLVESGGGLVQAGGSLRLSCAASGTTFYKYSMGWYRQAPGKERELVAAITSRGDRTYYADSVKGRFTISRDNANNTVYLQMNSLKPEDTAVYYCAATRWRDAGHSYDYWGQGTQVTVSS	high polyreactivity
QVQLVESGGGLVQAGGSLRLSCAASGTTFYPNAMGWYRQAPGKERELVAAISWSGGRTYYADSVKGRFTISRDNAKNTVYLQMNSLKPEDTAVYYCNRYHRTSWRAKYDYWGQGTQVTVSS	high polyreactivity
QVQLVESGGGLVQAGGSLRLSCAASGTTLVIYAMGWYRQAPGKERELVAAINFSDGSTSYADSVKGRFTKSRDNAKNTVYLQMISLKPEDTAVYYWGQGTQVTVSS	low polyreactivity
QVQLVESGGGLVQAGGSLRLSCAASGTYFGYAMGWYRQAPGKETELVAAITSGGSTYYADSVKGRFTISRDNAKNTVYLQMNSLKPEDTADYYCARVYSRWSYRYDYWGQGSQVTVSS	low polyreactivity
QVQLVESGGGLVQAGGSLRLSCAASGTYTNAMGWYRQAPGKERELVAAISSTVGRTYYADSVKGRFTISRDNAKNPVYLQMNSLKPEDTAVYYCATTHGRTYYYWGQGTLVTVSS	high polyreactivity
QVQLVESGGGLVQAGGSLRLSCAASGVIFDFNAMGWYRQAPGKERELAASISRSGGSTYYADSVKGRFTISRDNAKNTVYLQMNSLKPEDTAVYYCAKASKGQYRFDYWGQGTQVTVSS	low polyreactivity
QVQLVESGGGLVQAGGSLRLSCAASGVTFVDYAMGWYRQAPGKERELVAAITVSGDSTYYADSVKGRFTLSRDNAKNTVYLQMNSLKPEDTAVYYCAADPGYYDGGYWGQGTQVTVSS	low polyreactivity
QVQLVESGGGLVQAGGSLRLSCAASGVYAMGWYRQAPGQERELVAAITSVGSTNYADSVKGRFTISRDNAKNTVYLQMNSLKPEDTAVYYCNTDRDTDELDYWGQGTQVTVSS	low polyreactivity
QVQLVESGGGLVQAGGSLRLSCAASGYFDLNAMGWYRQAPGKERELVAAITDGGSTNYADSVKGRFTISRDNAKNTVYLQMNSLKPEDTAVYYCAADRGHTILHGGHWGQGTQVTVSS	low polyreactivity
QVQLVESGGGLVQAGGSLRLSCAASGYIFAAYTMGWYRQAPGKEREFVAAITRSGGSTYYADSVKWRFTISRDNAKNTVYLQMNSLKPEDTAVYYCAARRWRYFPDYDYWGQGTQVTVSS	high polyreactivity
QVQLVESGGGLVQAGGSLRLSCAASGYIFAINAMGWYRQAPGKERELVAAIRSGGRTYYADSVKGRFTISRDKAKNTVYLQMNSLKPEDTAVYYCNAGGKWIGSDYWGQGTQVTVSS	high polyreactivity
QVQLVESGGGLVQAGGSLRLSCAASGYIFAIYAMGCYRQAPGKERELVAAISTSGGSTYYADSVKGRFTISRDNAKNTVYLQMNSLKPDDTAVYYCARPTTYGYYYWGQGTQVTVSS	high polyreactivity
QVQLVESGGGLVQAGGSLRLSCAASGYIFDDYAMGWYRQAPGKERELVAAISRGGSTYYADSVKGRFTISRDNSKNTVYLQMNSLKPEDTEVYYCAAVYRVRRITYVYWGQGTQVTVSS	high polyreactivity
QVQLVESGGGLVQAGGSLRLSCAASGYIFDKNAMGWYRQAPGKERELVAAITSSGGRTYYADSVKGRFTISRDNAKNTVYLQMNSLKPEDTAVYYCNKLYRTSGEYVYWGQGTQVTVSS	high polyreactivity
QVQLVESGGGLVQAGGSLRLSCAASGYIFDPNAMGWYRQAPGKERELVAAISGSGTSTYYADSVKGRFTISRDNAKNTVYLQMNSLKPEDTAVYYCAAAHDAGPVRYYYWGHGTQVTVSS	low polyreactivity
QVQLVESGGGLVQAGGSLRLSCAASGYIFGHYTMGWYRPAPGKEGELVAGITRGTRTYYADSVKGRFTISRDNAKNTVYLQMNSLKPEDTAVYYCAKRGPVRTQYTYYYWGQGTQVTVSS	high polyreactivity
